Measured values reported in paper PMC10405735.

Tests used:
[1] = molecular target: CCL20 (Mus musculus) (UniProt O89093); settings: cited from earlier work
[2] = molecular target: murine GPR182 (mGPR182), expressed from mGPR182 T2A GFP in 300.19 pre-B cells (mouse) (UniProt P43142); assay: flow cytometry on cells; competition scavenging at 37°C: 300.19 cells expressing mGPR182 or hGPR182 with 3 nM fluorescent chemokine and increasing concentrations of its unlabeled counterpart, 45 min
[3] = molecular target: human GPR182 (hGPR182), expressed from hGPR182 T2A GFP in 300.19 pre-B cells (human) (UniProt O15218); assay: as above

Substance | Kd [1] [nM] | Kd (competition scavenging) [2] [nM] | Kd (competition scavenging) [3] [nM]
ACKR4 (from UniProt Q924I3) | 800 |  | 
hCXCL12, unlabeled (from UniProt P48061 22-93) (ligand) |  | 60 | 85
